The target of one data set is T1, H4-12(K5A/K12A) peptide.
T1 chain: RGAGGKGLGAGA

The target of another data set is T2, H4-12(K5X/K12A) peptide.
T2 chain: RGXGGKGLGAGA

The target in data set [1] is T3, H4-15 histone H4 tail peptide.
T3 chain: GRGKGGKGLGKGGAK

The next data set concerns the target T4, H4-15(K5D/K12D) peptide.
T4 chain: GRGDGGKGLGDGGAK

The values that follow come from patent US20100216853.

Changes are numbered by the printed parent chain. Numbers in names are those of the source.

B1: semi-synthetic p300 HAT domain D1625R/D1628R double mutant (protein)
chain: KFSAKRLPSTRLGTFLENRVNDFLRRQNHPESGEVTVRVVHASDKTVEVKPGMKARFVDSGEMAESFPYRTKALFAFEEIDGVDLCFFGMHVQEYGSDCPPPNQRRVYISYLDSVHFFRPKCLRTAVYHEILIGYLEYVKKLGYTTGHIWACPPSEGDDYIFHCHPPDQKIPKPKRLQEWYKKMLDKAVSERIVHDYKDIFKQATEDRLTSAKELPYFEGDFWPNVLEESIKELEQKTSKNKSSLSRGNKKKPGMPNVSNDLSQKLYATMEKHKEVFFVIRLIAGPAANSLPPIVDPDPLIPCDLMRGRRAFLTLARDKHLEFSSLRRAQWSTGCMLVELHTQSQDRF
B1: in the data set with H4-12(K5A/K12A) peptide, the V/K(M^-1s^-1) for D1625R/D1628R was 515 M⁻¹ s⁻¹ and the “loss in V/K against wild-type” value was “the loss of 6-fold in V/K for neutral H4 substrates”. Besides, in the data set with H4-12(K5X/K12A) peptide, the V/K(M^-1s^-1) for D1625R/D1628R came out at 738 M⁻¹ s⁻¹ and the “loss in V/K against wild-type” value is recorded as “the loss of 6-fold in V/K for neutral H4 substrates”. In data set [1], the “Km(µM) for H4-15” value is listed as above 1000; the V/K was 1160 M⁻¹ s⁻¹; the “V/K difference against wild-type” value was “the 22-fold V/K difference between wild-type p300 HAT protein and the D1625R/D1628R mutant for H4-15 substrate”; the “V/K drop against wild-type” value is recorded as “a 20-fold drop in V/K”. Further, the V/K(M^-1s^-1) for D1625R/D1628R in data set [1] was determined as 1160 M⁻¹ s⁻¹. In the data set with H4-15(K5D/K12D) peptide, the V/K(M^-1s^-1) for D1625R/D1628R was found to be 422 M⁻¹ s⁻¹ and the “acetyltransferase activity against wild-type” value is “almost equal (within 2-fold) acetyltransferase activity”.

B2: semi-synthetic p300 HAT domain, wild-type (protein)
chain: B1 chain with R307D, R310D
In the case of B2, the Km result in the data set with H4-12(K5A/K12A) peptide, with H4-12(K5X/K12A) peptide and with H4-15(K5D/K12D) peptide was “Km of these substrates were generally too high to be measured (>1000 µM)” each time. The V/K(M^-1s^-1) for W.T. worked out at 3820 M⁻¹ s⁻¹ in the data set with H4-12(K5A/K12A) peptide, 5250 M⁻¹ s⁻¹ in the data set with H4-12(K5X/K12A) peptide, 25000 M⁻¹ s⁻¹ in data set [1] and 636 M⁻¹ s⁻¹ with H4-15(K5D/K12D) peptide. The Km(µM) for H4-15 in data set [1] came out at 164 µM. Besides, in data set [1], the V/K amounted to 25000 ± 1640 M⁻¹ s⁻¹.
